Holding throughout (assay): […] (pH 7.4), 0.5 mL/min; […]
Assay [1] has as its target rTET-NA derived from A/Michigan/45/2015 N1 (not stated | influenza A virus A/Michigan/45/2015 (H1N1)).
Assay [2] deals with rTET-NA derived from A/Singapore/INFIMH-16-0019/2016 N2 (not stated | influenza A virus A/Singapore/INFIMH-16-0019/2016 (H3N2)).
For assay [3], the target named is rTET-NA derived from B/Colorado/06/2017 (B/Victoria/2/87-like lineage) (not stated | influenza B virus B/Colorado/06/2017 (B/Victoria/2/87-like lineage)).
For assay [4], the target named is rTET-NA derived from B/Phuket/3073/2013 (B/Yamagata/16/88-like lineage) (not stated | influenza B virus B/Phuket/3073/2013 (B/Yamagata/16/88-like lineage)).

Consider “rTET-NA derived from A/Michigan/45/2015 N1 (enzyme)”, for which, in assay [1], the stoichiometry N was found to be 4.

For the substance “rTET-NA derived from A/Singapore/INFIMH-16-0019/2016 N2 (enzyme)”, in assay [2], the stoichiometry N was determined as 4.

As to “rTET-NA derived from B/Colorado/06/2017 (B/Victoria/2/87-like lineage) (enzyme)”, the stoichiometry N in assay [3] was 4.

In the case of “rTET-NA derived from B/Phuket/3073/2013 (B/Yamagata/16/88-like lineage) (enzyme)”, the stoichiometry N in assay [4] came out at 4.

Broadly, the stoichiometry N is a count of units in the complex or per binding partner.

The record behind these values is publication PMC11577023.
